Experimental findings from PMC3274520 are described below.

Test [1] has as its target truncated MNV-1 NS1-2, bacterial two-hybrid fusions (pBT-NS1-2trunc and pTRG-NS1-2trunc) (Murine norovirus (MNV-1)). As to the kind of experiment: two-hybrid; BacterioMatch II bacterial two-hybrid; NS1-2 fused to λcI (pBT) and to the RNA polymerase α-subunit (pTRG); selective medium with 3 mM 3-AT.
For test [2], the target named is full-length MNV-1 NS1-2, bacterial two-hybrid fusions (pBT-NS1-2full and pTRG-NS1-2full) (Murine norovirus (MNV-1)). The description is as above.
Test [3] deals with truncated MNV-1 NS1-2 fragment (minus the transmembrane domain), recombinant from E. coli (Murine norovirus (MNV-1)). The experiment in a line: SEC + other: sucrose gradient sedimentation; Stokes radius from the calibrated Superose12 column and sedimentation coefficient from 5-20% sucrose gradients (16 h, 130,000×g, 4°C) joined in the simplified Svedberg equation; monomer and dimer fractions of the size exclusion column.

“truncated MNV-1 NS1-2, bacterial two-hybrid fusions (pBT-NS1-2trunc and pTRG-NS1-2trunc) (domain or fragment)” displayed a percent positive (transcriptional activation) in test [1] of 38%.

The substance “full-length MNV-1 NS1-2, bacterial two-hybrid fusions (pBT-NS1-2full and pTRG-NS1-2full) (natural protein)” returned a percent positive (transcriptional activation) in test [2] of 26%.

In the case of “truncated MNV-1 NS1-2 fragment (minus the transmembrane domain), recombinant from E. coli (domain or fragment)”, in test [3], the stoichiometry N amounted to 2.
